Drawing on patent publication US20250340654A1, this text covers EC50 for one substance.

The target of the assay is Canine IL-31RA ECD-10His (canine). Put plainly: ELISA, IL-31RA coated at 1 ug/mL, biotinylated IL-31 titrated, HRP-streptavidin. Background: An ELISA detects its analyte on a solid surface through an enzyme-linked reagent.
Chain of Canine IL-31RA ECD-10His (canine) (chain, as listed by the source limits assumed): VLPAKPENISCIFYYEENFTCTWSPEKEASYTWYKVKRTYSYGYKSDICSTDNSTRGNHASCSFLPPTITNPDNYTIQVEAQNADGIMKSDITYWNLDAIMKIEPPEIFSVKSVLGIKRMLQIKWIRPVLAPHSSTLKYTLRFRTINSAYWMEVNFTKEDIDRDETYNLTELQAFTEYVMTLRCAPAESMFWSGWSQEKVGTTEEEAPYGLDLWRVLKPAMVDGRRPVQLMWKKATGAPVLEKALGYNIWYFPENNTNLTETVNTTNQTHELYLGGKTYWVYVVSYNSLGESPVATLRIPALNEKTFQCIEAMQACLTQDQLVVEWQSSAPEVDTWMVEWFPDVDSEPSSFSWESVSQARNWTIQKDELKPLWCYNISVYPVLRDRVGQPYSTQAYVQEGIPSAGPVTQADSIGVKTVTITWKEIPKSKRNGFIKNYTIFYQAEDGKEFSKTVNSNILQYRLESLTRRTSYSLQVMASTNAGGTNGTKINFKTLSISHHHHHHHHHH

biotinylated canine IL-31 (ligand): the EC50 (as a rule, the concentration needed to bring the measured effect to its halfway point) turned out to be 0.55 ng/mL.
